In patent US20230303623A1, “PEPTIDES AND METHODS OF USE” (REALTA LIFE SCIENCES, INC., priority 2020, published 2023):
Bridges are numbered along the chain shown (N, C = ends). Where no end group is shown, it is not given here. [ ]: non-standard residue; d: D form. R8 = C=CCCCCCC[C@@](C)(N)C(=O)O; S5 = C=CCCC[C@](C)(N)C(=O)O; Sar = CNCC(=O)O

What was measured:
C1q [1] = molecular target: T1, C1q (Homo sapiens, UniProt P02745+P02746+P02747); assay: C1q binding ELISA-type assay; conditions: compared to parent peptide
T1 construct: purchased Complement Technology (Tyler, TX)
Procedure: The C1q binding assay was performed as previously described. Briefly, an Immunlon-2 HB ELISA plate was coated with 1 μg/ml C1q in bicarbonate buffer overnight at 4° C. The plates were washed with PBS-T (phosphate buffered saline+0.1% Tween) and then blocked with 1% gelatin/PBS for 2 hours at room temperature. After washing, the plates were incubated with the peptides starting at 2.5 mg/ml and then serially diluted in 1% gelatin/PBS for 1 hour at room temperature followed by washing. Plates were then probed with rabbit antibody raised against the lead peptide […] (SEQ ID NO: 2) that lacked PEGylation at 1:1000 in 1% gelatin/PBS for 1 hour at room temperature followed by a goat anti-rabbit HRP (Sigma Aldrich, St Louis, MO) at 1:1,000 in 1% gelatin/PBS for 1 hour at room temperature with a washing step in between. After addition of TMB substrate solution to the wells, the reaction was stopped using 1N H2SO4, and the plate read on a BioTek Synergy HT plate reader at 450 nm.
The astrovirus capsid protein and the PIC1 molecules derived from it inhibit classical complement pathway activation by binding to the pattern recognition molecule C1q. The inventors next tested peptide variant binding to C1q in an ELISA-type assay in which C1q is used as the capture substrate and bound peptide detected with a rabbit polyclonal antibody against the peptide portion of PA-dPEG24 ([…]-d24; SEQ ID NO: 3). Binding curves were derived for the stapled and D-amino acid peptides based on the PA-I8Sar and PA-C9Sar (FIG. 5A-5C) backbone, from which half-maximal binding concentrations were calculated (FIGS. 2A and B, respectively). […] For the peptides based on the PA-C9Sar backbone, C1q was bound to a greater degree than the parent peptide (FIG. 2B).

[2] = system: antibody-initiated complement activation (lysis of AB human red blood cells by type O serum); assay: ABO incompatibility hemolytic complement assay (CH50-type); format: cell-based; conditions: peptides 0.8 mg/ml (~0.5 mM); compared to parent peptide
Procedure: FIG. 1A-1B show PIC1 peptides' inhibition of complement activation in an ABO incompatibility assay. […] Inhibition of ABO incompatibility hemolysis in a CH50-type assay. Peptides are at a final concentration of 0.5 mM. Values are represented as a percent of the positive control, which consists of human 0 sera and AB red blood cells in GVBS^++ buffer. Data are the means of n=3 independent experiments±SEM.
For hemolytic complement assays, human red blood cells (RBCs) from type AB donors were purified, washed, and standardized to 1.0×10^9 cells/ml, as previously described. Human sera from type 0 donors at a 15% final concentration was combined with 0.5 mM of the peptides and the volume was brought up to 0.2 ml with GVBS^++ and 5.0×10^7 RBCs. The samples were incubated for 1 hour at 37° C. and then spun at 3,000 rpm for 5 minutes and the supernatant was collected and read at 412 nm. Values are represented as a percent of the positive control, which consists of human 0 sera and AB red blood cells in GVBS^++ buffer.
To assess the extent to which the peptide variants inhibit antibody-initiated complement activation, an ABO incompatibility ex vivo assay was utilized in which purified erythrocytes from a ‘type AB+’ donor are incubated with sera from a ‘type 0’ subject containing anti-A and anti-B antibodies. Peptides were tested at a concentration of 0.8 mg/ml (˜0.5 mM).

PD-L1 = PD-L1 (Homo sapiens, UniProt Q9NZQ7); assay: Peptide binding to immobilized PD-L1, ELISA plate-based assay; conditions: increasing amounts of peptide
Procedure: (§1) RLS-0134 and RLS-0150 were allowed to bind to immobilized CTLA-4, PD-1, PD-L1 on the surface of the plate. Bound C1q and MAC-1 served as a positive and negative control for peptide binding, respectively. Increasing amounts of peptides were added to the plates followed by a rabbit polyclonal antibody that recognizes the peptides and then a secondary anti-rabbit antibody conjugated with HRP. The plate was then developed by addition of TMB as the substrate for the colorimetric assay.
(§2) The inventors further evaluated if RLS-0134 and RLS-0150 could bind to the well characterized checkpoint inhibitor, cytotoxic T-lymphocyte associated protein 4 (CTLA-4 aka CD152). […] Therefore, the pharmaceutical inhibition of CTLA-4 or its ligand has been considered a promising strategy by many cancer researchers and could be a therapeutic target in cancer immunotherapy. To ascertain the ability of select PIC1 peptides to bind CTLA-4, a binding assay was performed in which these proteins were coated on a microtiter plate followed by incubation with increasing amounts of either RLS-0134 and RLS-0150. Plates coated with PD-1, PD-L1 and C1q served as a positive control for peptide binding whereas MAC-1 served as a negative control for peptide binding.

C1q [3] = molecular target: T1, C1q; assay: Peptide binding to immobilized C1q (positive control), ELISA plate-based assay of Example 3; conditions: increasing amounts of peptide; positive control protein
Procedure: as §1, §2

PD-1 = PD-1 (Homo sapiens, UniProt Q15116); assay: Peptide binding to immobilized PD-1, ELISA plate-based assay; conditions: increasing amounts of peptide
Procedure: as §1, §2

CTLA-4 = molecular target: T2, CTLA-4 (Homo sapiens, UniProt P16410); assay: Peptide binding to immobilized CTLA-4, ELISA plate-based assay; conditions: increasing amounts of peptide
T2 sequence (P16410 36-223): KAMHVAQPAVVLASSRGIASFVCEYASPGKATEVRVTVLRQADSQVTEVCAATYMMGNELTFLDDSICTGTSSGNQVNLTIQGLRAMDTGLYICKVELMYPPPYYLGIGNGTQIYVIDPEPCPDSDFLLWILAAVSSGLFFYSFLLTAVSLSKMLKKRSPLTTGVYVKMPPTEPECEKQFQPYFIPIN
Procedure: as §1, §2

[4] = Total Antioxidant Capacity (TAC) assay; conditions: highest peptide concentration 1.5 mM; compared to parent peptide
Procedure: As previously reported, the TAC (Total Antioxidant Capacity) Assay (Cell Biolabs, Inc, San Diego, CA) was used to measure the antioxidant capacity of the PIC1 variants based on the reduction of copper (II) to copper (I). The kit protocol was performed per the manufacturer's recommendations.
The antioxidant properties for the PIC1 variants were evaluated in a Total Antioxidant Capacity (TAC) assay, as previously reported. Total antioxidant activity over a range of peptide concentrations were determined for the stapled and the D-amino acid peptides based on the PA-I8Sar and PA-C9Sar backbones (FIG. 4A-4B), with the activity of the highest peptide concentration reported (1.5 mM) (FIG. 5A-5C).

MAC-1 = MAC-1 (Homo sapiens, UniProt P05107+P11215); assay: Peptide binding to immobilized MAC-1 (negative control), ELISA plate-based assay; conditions: increasing amounts of peptide; negative control protein
Procedure: as §1, §2

MPO = molecular target: T3, MPO (Homo sapiens, UniProt P05164); assay: MPO activity assay; format: biochemical; conditions: compared to parent peptide
T3 construct: purchased Lee BioSolutions (Maryland Heights, MO)
Procedure: The MPO activity assay was performed as previously described. Briefly, peptides were diluted to 12 mg/ml and serially titrated in a 96 well plate at a volume of 0.02 ml. MPO was diluted to 20 μg/ml and 0.02 ml was added to the titrated peptides. TMB (3,30,5,50-tetramethylbenzidine) (0.1 ml) was added to each well for 2 minutes, followed by 0.1 ml of 2.5 N H2SO4 for another 2 minutes, and then read on a 96 well plate reader (BioTek) at 450 nm.
To ascertain the inhibition of MPO activity by the various peptides, a range of concentrations of the stapled peptides and D-amino acid variants were tested (FIG. 3A-3B) and half-maximal activity levels were calculated from the dose-response curves (FIG. 6A-6C, respectively).

T1 sequence (P02745 23-245): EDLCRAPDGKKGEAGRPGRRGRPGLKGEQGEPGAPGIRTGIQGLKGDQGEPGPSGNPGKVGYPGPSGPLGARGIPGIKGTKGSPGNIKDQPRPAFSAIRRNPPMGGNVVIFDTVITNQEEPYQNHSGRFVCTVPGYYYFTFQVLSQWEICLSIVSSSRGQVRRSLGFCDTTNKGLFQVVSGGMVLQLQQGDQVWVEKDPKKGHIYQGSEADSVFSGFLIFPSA
T1 sequence (P02746 28-253): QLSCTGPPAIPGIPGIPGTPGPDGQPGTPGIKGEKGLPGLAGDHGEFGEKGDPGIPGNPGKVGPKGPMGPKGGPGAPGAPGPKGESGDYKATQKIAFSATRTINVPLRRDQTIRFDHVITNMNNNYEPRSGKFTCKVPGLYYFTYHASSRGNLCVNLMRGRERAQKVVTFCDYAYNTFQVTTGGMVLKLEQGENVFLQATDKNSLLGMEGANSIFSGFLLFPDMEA
T1 sequence (P02747 29-245): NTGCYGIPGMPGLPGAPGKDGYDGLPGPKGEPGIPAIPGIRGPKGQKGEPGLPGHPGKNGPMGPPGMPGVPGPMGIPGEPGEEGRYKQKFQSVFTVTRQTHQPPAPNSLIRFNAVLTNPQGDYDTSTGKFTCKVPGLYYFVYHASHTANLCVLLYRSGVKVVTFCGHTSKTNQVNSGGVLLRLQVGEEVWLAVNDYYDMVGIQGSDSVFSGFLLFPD
Sequence of MAC-1 (P05107 23-769, other chains not shown): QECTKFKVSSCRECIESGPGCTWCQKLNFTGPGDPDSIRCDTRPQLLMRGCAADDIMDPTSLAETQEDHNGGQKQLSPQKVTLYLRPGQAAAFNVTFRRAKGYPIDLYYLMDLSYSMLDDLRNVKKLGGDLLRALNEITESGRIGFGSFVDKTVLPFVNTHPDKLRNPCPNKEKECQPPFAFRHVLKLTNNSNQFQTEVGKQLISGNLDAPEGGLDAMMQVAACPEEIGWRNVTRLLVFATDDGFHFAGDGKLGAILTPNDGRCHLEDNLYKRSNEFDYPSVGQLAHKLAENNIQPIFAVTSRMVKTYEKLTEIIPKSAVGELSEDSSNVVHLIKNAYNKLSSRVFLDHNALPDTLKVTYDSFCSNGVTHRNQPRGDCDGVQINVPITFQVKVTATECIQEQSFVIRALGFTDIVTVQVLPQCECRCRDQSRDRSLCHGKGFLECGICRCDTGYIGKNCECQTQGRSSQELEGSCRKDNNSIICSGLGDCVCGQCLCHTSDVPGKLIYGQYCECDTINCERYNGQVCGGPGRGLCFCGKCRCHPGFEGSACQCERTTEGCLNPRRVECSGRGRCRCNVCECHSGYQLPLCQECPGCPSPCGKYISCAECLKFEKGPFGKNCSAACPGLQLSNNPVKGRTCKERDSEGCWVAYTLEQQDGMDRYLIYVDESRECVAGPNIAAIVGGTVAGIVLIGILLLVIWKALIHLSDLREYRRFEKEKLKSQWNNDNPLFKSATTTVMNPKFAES
T3 sequence (P05164 279-745 limits assumed): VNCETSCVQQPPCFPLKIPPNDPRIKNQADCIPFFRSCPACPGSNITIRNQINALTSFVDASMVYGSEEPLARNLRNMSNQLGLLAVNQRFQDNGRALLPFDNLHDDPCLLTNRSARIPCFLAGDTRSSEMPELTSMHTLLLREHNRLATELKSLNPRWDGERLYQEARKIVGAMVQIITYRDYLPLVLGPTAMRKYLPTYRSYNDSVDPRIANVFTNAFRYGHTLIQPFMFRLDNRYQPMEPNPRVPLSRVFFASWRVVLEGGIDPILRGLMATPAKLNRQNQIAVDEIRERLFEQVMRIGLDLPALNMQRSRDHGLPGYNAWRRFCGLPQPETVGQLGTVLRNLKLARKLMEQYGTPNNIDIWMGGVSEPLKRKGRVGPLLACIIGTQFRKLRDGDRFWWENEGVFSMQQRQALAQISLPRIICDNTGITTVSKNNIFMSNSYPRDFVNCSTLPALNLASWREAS
T3 sequence (P05164 165-273 limits assumed): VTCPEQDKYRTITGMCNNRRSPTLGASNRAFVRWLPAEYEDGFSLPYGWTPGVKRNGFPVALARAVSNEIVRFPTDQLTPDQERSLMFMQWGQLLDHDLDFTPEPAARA
Sequence of PD-1 (Q15116 25-288): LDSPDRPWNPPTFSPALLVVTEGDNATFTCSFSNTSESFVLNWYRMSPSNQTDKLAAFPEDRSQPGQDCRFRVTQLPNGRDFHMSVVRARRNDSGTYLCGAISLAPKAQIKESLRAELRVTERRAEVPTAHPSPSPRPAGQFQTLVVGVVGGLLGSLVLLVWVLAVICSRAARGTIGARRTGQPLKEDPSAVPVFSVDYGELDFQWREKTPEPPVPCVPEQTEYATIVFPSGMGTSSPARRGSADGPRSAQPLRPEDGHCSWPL
Sequence of PD-L1 (Q9NZQ7 19-290): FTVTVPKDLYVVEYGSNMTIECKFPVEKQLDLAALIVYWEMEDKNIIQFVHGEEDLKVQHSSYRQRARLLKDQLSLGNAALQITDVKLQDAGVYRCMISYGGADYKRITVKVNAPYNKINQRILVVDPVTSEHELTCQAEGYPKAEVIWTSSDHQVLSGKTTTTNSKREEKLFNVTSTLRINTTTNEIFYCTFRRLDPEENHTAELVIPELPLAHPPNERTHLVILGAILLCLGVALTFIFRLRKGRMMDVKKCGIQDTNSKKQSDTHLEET

IAR8ILEP(Sar)CS5QERAA (IA[R8]ILEP[Sar]C[S5]QERAA; staple 3-10; not fully specified; printed as IAR8ILEP(Sar)CS5QERAA) [PA-0134]
binding to C1q (binding curves, half-maximal binding), in words (C1q [1]): markedly increased binding to C1q
inhibition of ABO incompatible hemolysis (complement inhibition), in words [2]: similar
binding to PD-L1, in words (PD-L1): dose-dependent binding
binding to C1q, in words (C1q [3]): dose-dependent binding
binding to PD-1, in words (PD-1): dose-dependent binding
binding to CTLA-4, in words (CTLA-4): bound CTLA-4
total antioxidant capacity, in words [4]: decreased activity compared to the parent peptide
binding to MAC-1, in words (MAC-1): minimal binding
inhibition of MPO activity (half-maximal values), in words (MPO): reduced inhibition of MPO activity
